Experimental data: patent US20160272683A1 (Novo Nordisk, published 2016)
Numbered stars: 1 amine (or outer) side, 2 acyl side, 3 side chain; on linkers, the order of the positions; unused ones are H or OH. * marks the point of attachment. C20 diacid = O=C(O)CCCCCCCCCCCCCCCCCCC(=O)*; C18 diacid = O=C(O)CCCCCCCCCCCCCCCCC(=O)*; C16 diacid = O=C(O)CCCCCCCCCCCCCCC(=O)*; γGlu = O=C(O)[C@H](CCC(=O)[*:2])N[*:1]; AEEA = NCCOCCOCC(=O)O

T1: human calcitonin receptor (human, UniProt P30988 25-474)
T1 sequence (looked up): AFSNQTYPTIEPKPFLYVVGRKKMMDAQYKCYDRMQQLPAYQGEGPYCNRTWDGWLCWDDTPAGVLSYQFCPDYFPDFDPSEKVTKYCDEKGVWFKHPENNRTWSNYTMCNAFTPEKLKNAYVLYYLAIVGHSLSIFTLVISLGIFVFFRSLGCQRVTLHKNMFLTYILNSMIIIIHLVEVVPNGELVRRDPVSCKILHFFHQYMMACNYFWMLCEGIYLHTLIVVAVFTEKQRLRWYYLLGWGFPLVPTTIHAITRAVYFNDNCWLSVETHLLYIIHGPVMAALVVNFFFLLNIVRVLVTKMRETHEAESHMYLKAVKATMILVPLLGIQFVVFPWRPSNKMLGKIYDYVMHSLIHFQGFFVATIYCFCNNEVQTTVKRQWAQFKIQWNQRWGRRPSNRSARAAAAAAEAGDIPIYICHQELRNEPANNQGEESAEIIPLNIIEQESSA

T2: human amylin 3(a) receptor (human calcitonin receptor co-expressed with RAMP-3) (human, UniProt P30988 25-474; O60896 24-148, limits assumed)
T2 sequence (looked up) 1: T1 sequence (looked up)
T2 sequence (looked up) 2: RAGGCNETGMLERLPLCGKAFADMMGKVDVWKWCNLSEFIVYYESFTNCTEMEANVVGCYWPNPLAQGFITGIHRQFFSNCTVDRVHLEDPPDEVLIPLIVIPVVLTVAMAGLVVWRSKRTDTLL

T3: human calcitonin receptor on BHK570/CRE-luc cells (human, UniProt P30988 25-474)
T3 sequence (looked up): T1 sequence (looked up)

T4: human amylin 3(a) receptor (human calcitonin receptor co-expressed with RAMP-3) on BHK570/CRE-luc cells (human, UniProt P30988 25-474; O60896 24-148)
T4 sequence (looked up) 1: T1 sequence (looked up)
T4 sequence (looked up) 2: T2 sequence (looked up) 2

B1: [N-terminal(C18 diacid-gGlu), des1, 30S]mimylin (peptide)
peptide: {C18 diacid-γGlu}-ASELSTAALGRLSAELHELATLPRTETGSESP-NH2
SMILES: CC(C)C[C@H](NC(=O)[C@H](C)NC(=O)[C@H](C)NC(=O)[C@@H](NC(=O)[C@H](CO)NC(=O)[C@H](CC(C)C)NC(=O)[C@H](CCC(=O)O)NC(=O)[C@H](CO)NC(=O)[C@H](C)NC(=O)CC[C@H](NC(=O)CCCCCCCCCCCCCCCCC(=O)O)C(=O)O)[C@@H](C)O)C(=O)NCC(=O)N[C@@H](CCCNC(=N)N)C(=O)N[C@@H](CC(C)C)C(=O)N[C@@H](CO)C(=O)N[C@@H](C)C(=O)N[C@@H](CCC(=O)O)C(=O)N[C@@H](CC(C)C)C(=O)N[C@@H](Cc1c[nH]cn1)C(=O)N[C@@H](CCC(=O)O)C(=O)N[C@@H](CC(C)C)C(=O)N[C@@H](C)C(=O)N[C@H](C(=O)N[C@@H](CC(C)C)C(=O)N1CCC[C@H]1C(=O)N[C@@H](CCCNC(=N)N)C(=O)N[C@H](C(=O)N[C@@H](CCC(=O)O)C(=O)N[C@H](C(=O)NCC(=O)N[C@@H](CO)C(=O)N[C@@H](CCC(=O)O)C(=O)N[C@@H](CO)C(=O)N1CCC[C@H]1C(N)=O)[C@@H](C)O)[C@@H](C)O)[C@@H](C)O
B2: [N-terminal(C20 diacid-gGlu), 23Y, 30S, 31G]mimylin (peptide)
peptide: {C20 diacid-γGlu}-EASELSTAALGRLSAELHELATYPRTETGSGSP-NH2
SMILES: CC(C)C[C@H](NC(=O)[C@H](C)NC(=O)[C@H](C)NC(=O)[C@@H](NC(=O)[C@H](CO)NC(=O)[C@H](CC(C)C)NC(=O)[C@H](CCC(=O)O)NC(=O)[C@H](CO)NC(=O)[C@H](C)NC(=O)[C@H](CCC(=O)O)NC(=O)CC[C@H](NC(=O)CCCCCCCCCCCCCCCCCCC(=O)O)C(=O)O)[C@@H](C)O)C(=O)NCC(=O)N[C@@H](CCCNC(=N)N)C(=O)N[C@@H](CC(C)C)C(=O)N[C@@H](CO)C(=O)N[C@@H](C)C(=O)N[C@@H](CCC(=O)O)C(=O)N[C@@H](CC(C)C)C(=O)N[C@@H](Cc1c[nH]cn1)C(=O)N[C@@H](CCC(=O)O)C(=O)N[C@@H](CC(C)C)C(=O)N[C@@H](C)C(=O)N[C@H](C(=O)N[C@@H](Cc1ccc(O)cc1)C(=O)N1CCC[C@H]1C(=O)N[C@@H](CCCNC(=N)N)C(=O)N[C@H](C(=O)N[C@@H](CCC(=O)O)C(=O)N[C@H](C(=O)NCC(=O)N[C@@H](CO)C(=O)NCC(=O)N[C@@H](CO)C(=O)N1CCC[C@H]1C(N)=O)[C@@H](C)O)[C@@H](C)O)[C@@H](C)O
B3: [N-terminal(C18 diacid-gGlu), des1, 30S, 31P]mimylin (peptide)
peptide: {C18 diacid-γGlu}-ASELSTAALGRLSAELHELATLPRTETGSPSP-NH2
SMILES: CC(C)C[C@H](NC(=O)[C@H](C)NC(=O)[C@H](C)NC(=O)[C@@H](NC(=O)[C@H](CO)NC(=O)[C@H](CC(C)C)NC(=O)[C@H](CCC(=O)O)NC(=O)[C@H](CO)NC(=O)[C@H](C)NC(=O)CC[C@H](NC(=O)CCCCCCCCCCCCCCCCC(=O)O)C(=O)O)[C@@H](C)O)C(=O)NCC(=O)N[C@@H](CCCNC(=N)N)C(=O)N[C@@H](CC(C)C)C(=O)N[C@@H](CO)C(=O)N[C@@H](C)C(=O)N[C@@H](CCC(=O)O)C(=O)N[C@@H](CC(C)C)C(=O)N[C@@H](Cc1c[nH]cn1)C(=O)N[C@@H](CCC(=O)O)C(=O)N[C@@H](CC(C)C)C(=O)N[C@@H](C)C(=O)N[C@H](C(=O)N[C@@H](CC(C)C)C(=O)N1CCC[C@H]1C(=O)N[C@@H](CCCNC(=N)N)C(=O)N[C@H](C(=O)N[C@@H](CCC(=O)O)C(=O)N[C@H](C(=O)NCC(=O)N[C@@H](CO)C(=O)N1CCC[C@H]1C(=O)N[C@@H](CO)C(=O)N1CCC[C@H]1C(N)=O)[C@@H](C)O)[C@@H](C)O)[C@@H](C)O

target: T1, human calcitonin receptor; experiment: cell-based or functional assay

{C20 diacid-γGlu-AEEA-AEEA}-ASELSTAALGRLSAELHELATLPRTETGSGSP-NH2 [[N-terminal(C20 diacid-gGlu-2xOEG), des1, 30S, 31G]mimylin] was tested. Which “hCTR funct. EC50 (pM)” value did it give?
Its value is 12 pM.

How did the “hCTR funct. EC50 (pM)” value turn out when {C20 diacid-γGlu-AEEA-AEEA-AEEA}-ASELSTAALGRLSAELHELATLPRTETGSGSP-NH2 [[N-terminal(C20 diacid-gGlu-3xOEG), des1, 30S, 31G]mimylin] was run?
Its value is 11 pM.

Which “hCTR funct. EC50 (pM)” value does the source give for {C20 diacid-γGlu-AEEA-AEEA-AEEA-AEEA}-ASELSTAALGRLSAELHELATLPRTETGSGSP-NH2 [[N-terminal(C20 diacid-gGlu-4xOEG), des1, 30S, 31G]mimylin] here?
Its value is 13 pM.

With {C20 diacid-γGlu-AEEA-AEEA-AEEA-AEEA-AEEA}-ASELSTAALGRLSAELHELATLPRTETGSGSP-NH2 [[N-terminal(C20 diacid-gGlu-5xOEG), des1, 30S, 31G]mimylin] as the binder, how does the “hCTR funct. EC50 (pM)” value read?
Its value is 10 pM.

{C18 diacid-γGlu}-ASELSTAALGRLSAELHELATLPRTETGSGSP-NH2 [[N-terminal(C18 diacid-gGlu), des1, 30S, 31G]mimylin] was tested. Which “hCTR funct. EC50 (pM)” value did it give?
The value was 17 pM.

Which “hCTR funct. EC50 (pM)” value does the source give for {C16 diacid-γGlu}-ASELSTAALGRLSAELHELATLPRTETGSGSP-NH2 [[N-terminal(C16 diacid-gGlu), des1, 30S, 31G]mimylin] here?
The value was 15 pM.

With {C18 diacid}-ASELSTAALGRLSAELHELATLPRTETGSGSP-NH2 [[N-terminal(C18 diacid), des1, 30S, 31G]mimylin] as the binder, how does the “hCTR funct. EC50 (pM)” value read?
The value was 17 pM.

target: T2, human amylin 3(a) receptor (human …); experiment: cell-based or functional assay

For {C20 diacid-γGlu-AEEA-AEEA}-ASELSTAALGRLSAELHELATLPRTETGSGSP-NH2 [[N-terminal(C20 diacid-gGlu-2xOEG), des1, 30S, 31G]mimylin], which “hAmylin-R funct. EC50 (pM)” value is on record?
Its value is 17 pM.

For {C20 diacid-γGlu-AEEA-AEEA-AEEA}-ASELSTAALGRLSAELHELATLPRTETGSGSP-NH2 [[N-terminal(C20 diacid-gGlu-3xOEG), des1, 30S, 31G]mimylin], which “hAmylin-R funct. EC50 (pM)” value is on record?
Its value is 18 pM.

{C20 diacid-γGlu-AEEA-AEEA-AEEA-AEEA}-ASELSTAALGRLSAELHELATLPRTETGSGSP-NH2 [[N-terminal(C20 diacid-gGlu-4xOEG), des1, 30S, 31G]mimylin] was tested. Which “hAmylin-R funct. EC50 (pM)” value did it give?
Its value is 24 pM.

How did the “hAmylin-R funct. EC50 (pM)” value turn out when {C20 diacid-γGlu-AEEA-AEEA-AEEA-AEEA-AEEA}-ASELSTAALGRLSAELHELATLPRTETGSGSP-NH2 [[N-terminal(C20 diacid-gGlu-5xOEG), des1, 30S, 31G]mimylin] was run?
Its value is 15 pM.

Which “hAmylin-R funct. EC50 (pM)” value does the source give for {C18 diacid-γGlu}-ASELSTAALGRLSAELHELATLPRTETGSGSP-NH2 [[N-terminal(C18 diacid-gGlu), des1, 30S, 31G]mimylin] here?
Its value is 16 pM.

How did the “hAmylin-R funct. EC50 (pM)” value turn out when {C16 diacid-γGlu}-ASELSTAALGRLSAELHELATLPRTETGSGSP-NH2 [[N-terminal(C16 diacid-gGlu), des1, 30S, 31G]mimylin] was run?
Its value is 18 pM.

For {C18 diacid}-ASELSTAALGRLSAELHELATLPRTETGSGSP-NH2 [[N-terminal(C18 diacid), des1, 30S, 31G]mimylin], which “hAmylin-R funct. EC50 (pM)” value is on record?
Its value is 18 pM.

target: T3, human calcitonin receptor on …; experiment: cell-based or functional assay

Which “hCTR funct. EC50 (pM), tested with HSA” value does the source give for {C18 diacid}-EASELSTAALGRLSAELHELATLPRTETGSGSP-NH2 [[N-terminal(C18 diacid), 30S, 31G]mimylin] here?
The value was 19 pM.

How did the “hCTR funct. EC50 (pM), tested with HSA” value turn out when {C20 diacid}-EASELSTAALGRLSAELHELATLPRTETGSGSP-NH2 [[N-terminal(C20 diacid), 30S, 31G]mimylin] was run?
Its value is 26 pM.

With B1 as the binder, how does the “hCTR funct. EC50 (pM), tested with HSA” value read?
Its value is 9 pM.

How did the “hCTR funct. EC50 (pM), tested with HSA” value turn out when B2 was run?
Its value is 74 pM.

How did the “hCTR funct. EC50 (pM), tested with HSA” value turn out when B3 was run?
Its value is 19 pM.

target: T4, human amylin 3(a) receptor (human …); experiment: cell-based or functional assay

{C18 diacid}-EASELSTAALGRLSAELHELATLPRTETGSGSP-NH2 [[N-terminal(C18 diacid), 30S, 31G]mimylin] was tested. Which “hAmylin-R funct. EC50 (pM), tested with HSA” value did it give?
The value was 39 pM.

How did the “hAmylin-R funct. EC50 (pM), tested with HSA” value turn out when {C20 diacid}-EASELSTAALGRLSAELHELATLPRTETGSGSP-NH2 [[N-terminal(C20 diacid), 30S, 31G]mimylin] was run?
The value was 61 pM.

Which “hAmylin-R funct. EC50 (pM), tested with HSA” value does the source give for B1 here?
Its value is 26 pM.

For B2, which “hAmylin-R funct. EC50 (pM), tested with HSA” value is on record?
The value was 143 pM.

For B3, which “hAmylin-R funct. EC50 (pM), tested with HSA” value is on record?
The value was 39 pM.
